Reference: patent US20220378956A1

Experiments:
soluble uPAR (suPAR) [1] = biological target: soluble uPAR (suPAR) (UniProt Q03405); assay: SPR (Biacore 2000), antibody captured on protein A/G surface, suPAR injected, 25 C, 1:1 Langmuir fit
soluble uPAR (suPAR) [2] = biological target: soluble uPAR (suPAR) (UniProt Q03405); assay: SPR (Biacore 2000), antibody captured on rabbit anti-mouse surface, suPAR injected, 25 C, 1:1 Langmuir fit

Human Engineered ATN-658 variant HE ATN-4, renamed humanized mAb MNPR-101 (antibody)
Kd (soluble uPAR (suPAR) [1]): 0.39 nM

mouse monoclonal antibody ATN-658
Kd (soluble uPAR (suPAR) [2]): 0.38 nM
